This is an account of results in patent US20230265151A1, “GIP/GLP1 CO-AGONIST COMPOUNDS” (priority 2020, published 2023).

In one assay the target is hGLP-1R (Homo sapiens, UniProt P43220). Description: cell-based or functional assay.
Assay [1] deals with T1, human GIP receptor (human) (UniProt P48546).
T1 sequence (looked up): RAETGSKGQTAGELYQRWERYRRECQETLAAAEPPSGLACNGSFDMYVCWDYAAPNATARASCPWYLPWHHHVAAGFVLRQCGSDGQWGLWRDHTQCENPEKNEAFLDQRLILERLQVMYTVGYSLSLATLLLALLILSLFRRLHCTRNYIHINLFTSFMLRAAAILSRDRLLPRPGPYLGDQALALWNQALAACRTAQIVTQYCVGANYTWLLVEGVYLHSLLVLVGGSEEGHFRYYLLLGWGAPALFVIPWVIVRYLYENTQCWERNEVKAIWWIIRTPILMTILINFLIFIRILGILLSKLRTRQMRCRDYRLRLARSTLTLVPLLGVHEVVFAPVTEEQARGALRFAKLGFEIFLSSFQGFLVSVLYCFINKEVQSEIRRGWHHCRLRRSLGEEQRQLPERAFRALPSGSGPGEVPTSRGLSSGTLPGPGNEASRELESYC
The assay is described as follows: cell-based or functional assay.

Assay [2] has as its target human glucagon receptor (human) (UniProt P47871). The assay is described as follows: cell-based or functional assay.
The target of a further assay is T2, human GIP receptor (human, UniProt P48546 22-466).
T2 construct: whole, on cells; also called hGIPR; human glucose-dependent insulinotropic polypeptide receptor
T2 sequence (looked up): T1 sequence (looked up)
Description: SPA competition vs [125I]-GIP, hGIPR membranes. The protocol:
The binding buffer contains 25 mM HEPES, pH 7.4, 2.5 mM CaCl₂, 1 mM MgCl₂, 0.1% (w/v) bacitracin, 0.003% (w/v) TWEEN®-20, and Roche Complete™ Protease Inhibitors without EDTA. […] Plates are sealed and mixed on a plate shaker (setting 6) for 1 minute and read with a PerkinElmer Trilux MicroBeta® scintillation counter after 2.5 to 12 hours of incubation/settling time at room temperature.
(§1) Data are analyzed using four-parameter (curve maximum, curve minimum, IC₅₀, Hill slope) nonlinear regression routines (Genedata Screener, version 12.0.4, Genedata AG, Basal, Switzerland). […] Values for Kᵢ are reported as the geometric mean, with error expressed as the standard error of the mean (SEM) and n is equal to the number of independent replicates (determined in assays performed on different days). Geometric Means are calculated as follows: […]

A further assay has as its target T3, human GLP-1 receptor (human, UniProt P43220 24-463).
T3 construct: whole, on cells; also called hGLP-1R; human glucagon-like peptide-1 receptor
Description: SPA competition vs [125I]-GLP-1, hGLP-1R membranes. The protocol: The binding buffer contains 25 mM HEPES, pH 7.4, 2.5 mM CaCl₂, 1 mM MgCl₂, 0.1% (w/v) bacitracin, 0.003% (w/v) TWEEN®-20, and Roche Complete™ Protease Inhibitors without EDTA.
as §1

Substitutions are numbered along the chain they refer to. A value given as a limit tells only on which side of the number the result lay.

As for “Y-Aib-EGT-αMeF(2F)-TSD-4Pal-αMeS-I-αMeL-LD-Orn-K((2-[2-(2-Amino-ethoxy)-ethoxy]-acetyl)2-(γ-Glu)-CO-(CH2)12-CO2H)AQ-Aib-EFIK((2-[2-(2-Amino-ethoxy)-ethoxy]-acetyl)2-(γ-Glu)-CO-(CH2)12-CO2H)-αMeY-…-NH2 (peptide)”, the cAMP EC50 (1.0% HSA) was 17.9 nM with hGLP-1R, 2.03 nM in assay [1] and over 9950 nM in assay [2]. Moreover, the cAMP Emax (1.0% HSA) amounted to 108% in the assay with hGLP-1R and 80.4% in assay [1].

In the case of “Y-Aib-EGT-αMeF(2F)-TSD-4Pal-SI-αMeL-LD-Orn-IAQ-Aib-K((2-[2-(2-Amino-ethoxy)-ethoxy]-acetyl)2-(γ-Glu)-CO-(CH2)12-CO2H)FIK((2-[2-(2-Amino-ethoxy)-ethoxy]-acetyl)2-(γ-Glu)-CO-(CH2)12-CO2H)-αMeY-…-NH2 (peptide)”, the figures for the cAMP EC50 (1.0% HSA) (with hGLP-1R; in assay [1]; in assay [2]) were 18.9 nM, 2.32 nM and over 9950 nM, respectively. Moreover, the cAMP Emax (1.0% HSA) in the assay with hGLP-1R was 102%; in assay [1], 86.8%.

Regarding “Y-Aib-EGT-αMeF(2F)-TSD-4Pal-SI-αMeL-LD-Orn-K((2-[2-(2-Amino-ethoxy)-ethoxy]-acetyl)2-(γ-Glu)-CO-(CH2)12-CO2H)AQ-Aib-EFI-(D-Glu)-αMeY-LIEGGK((2-[2-(2-Amino-ethoxy)-ethoxy]-acetyl)2-(γ-Glu)-CO-(CH2)12-CO2H)SSG-Orn-PPPS-NH2 (peptide)”, the results for the cAMP EC50 (1.0% HSA) (in the assay with hGLP-1R; in assay [1]; in assay [2]) were 40.8 nM, 1.15 nM and over 9950 nM, respectively. Also, the cAMP Emax (1.0% HSA) with hGLP-1R is 98.2%; in assay [1], 94.1%.

As for “Y-Aib-EGT-αMeF(2F)-TSD-4Pal-SI-αMeL-LD-Orn-K((εK)-(γ-Glu)-CO-(CH2)12-CO2H)AQ-Aib-EFI-(D-Glu)-αMeY-LIEGGK((εK)-(γ-Glu)-CO-(CH2)12-CO2H)-NH2 (peptide)”, the figures for the cAMP EC50 (1.0% HSA) (with hGLP-1R; in assay [1]; in assay [2]) were 24.3 nM, 2.19 nM and over 9950 nM, respectively. Further, the cAMP Emax (1.0% HSA) worked out at 107% in the assay with hGLP-1R and 85.6% in assay [1].

B1: Y-Aib-EGT-αMeF(2F)-TSD-4Pal-Aib-I-αMeL-LD-Orn-QAQ-Aib-EFIK((2-[2-(2-Amino-ethoxy)-ethoxy]-acetyl)2-(γ-Glu)-CO-(CH2)12-CO2H)-αMeY-LIK((2-[2-(2-Amino-ethoxy)-etho … (peptide)
peptide: YXEGTXTSDXXIXLDXQAQXEFIKXLIKGGPSSGAPPPS
modifications: Aib2, αMeF(2F)6, 4Pal10, Aib11, αMeL13, Orn16, Aib20, K24(Z1), αMeY25, K28(Z1), C-term NH2; Z1=AEEA2-(γ-Glu)-CO-(CH2)12-CO2H
By Ki is commonly meant a dissociation constant, usually derived from enzyme kinetics or from competition with a known ligand. A high value points to a looser hold on the target. Take B1: the inhibition constant Ki with human GIP receptor is 0.0375 nM; with human GLP-1 receptor it was 1.33 nM.

B2: Y-Aib-EGT-αMeF(2F)-TSD-4Pal-Aib-I-αMeL-LD-Orn-QAQ-Aib-Orn-FIK((2-[2-(2-Amino-ethoxy)-ethoxy]-acetyl)-(γ-Glu)-CO-(CH2)12-CO2H)-αMeY-LIK((2-[2-(2-Amino-ethoxy)-et … (peptide)
peptide: B1 peptide with E21X
modifications: Aib2, αMeF(2F)6, 4Pal10, Aib11, αMeL13, Orn16, Aib20, Orn21, K24(Z1), αMeY25, K28(Z1), C-term NH2; Z1=AEEA-(γ-Glu)-CO-(CH2)12-CO2H
With B2, the Ki with human GIP receptor amounted to 0.023 nM; in the assay with human GLP-1 receptor, 0.224 nM.

B3: Y-Aib-EGT-αMeF(2F)-TSDY-Aib-I-αMeL-LD-Orn-QAQ-Aib-Orn-FIK((2-[2-(2-Amino-ethoxy)-ethoxy]-acetyl)3-(γ-Glu)-CO-(CH2)12-CO2H)-αMeY-LIK((2-[2-(2-Amino-ethoxy)-ethox … (peptide)
peptide: B1 peptide with X10Y, E21X
modifications: Aib2, αMeF(2F)6, Aib11, αMeL13, Orn16, Aib20, Orn21, K24(Z1), αMeY25, K28(Z1), C-term NH2; Z1=AEEA3-(γ-Glu)-CO-(CH2)12-CO2H
Take B3: the Ki in the assay with human GIP receptor is 0.0249 nM; with human GLP-1 receptor, 0.246 nM.

B4: Y-Aib-EGT-αMeF(2F)-TSD-4Pal-Aib-I-αMeL-LD-Orn-QAQ-Aib-EFIK((2-[2-(2-Amino-ethoxy)-ethoxy]-acetyl)3-(γ-Glu)-CO-(CH2)12-CO2H)-αMeY-LIK((2-[2-(2-Amino-ethoxy)-etho … (peptide)
peptide: B1 peptide
modifications: Aib2, αMeF(2F)6, 4Pal10, Aib11, αMeL13, Orn16, Aib20, K24(Z1), αMeY25, K28(Z1), C-term NH2; Z1=AEEA3-(γ-Glu)-CO-(CH2)12-CO2H
B4: the Ki in the assay with human GIP receptor amounted to 0.0528 nM; with human GLP-1 receptor, 0.433 nM.

B5: Y-Aib-EGT-αMeF(2F)-TSD-4Pal-SI-αMeL-LD-Orn-K((2-[2-(2-Amino-ethoxy)-ethoxy]-acetyl)2-(γ-Glu)-CO-(CH2)10-CO2H)AQ-Aib-EFI-(D-Glu)-αMeY-LIEGGK((2-[2-(2-Amino-ethox … (peptide)
peptide: YXEGTXTSDXSIXLDXKAQXEFIXXLIEGGKSSGAPPPS
modifications: Aib2, αMeF(2F)6, 4Pal10, αMeL13, Orn16, K17(Z1), Aib20, D-Glu24, αMeY25, K31(Z1), C-term NH2; Z1=AEEA2-(γ-Glu)-CO-(CH2)10-CO2H
As to B5, the values for the Ki in the assay with human GIP receptor and with human GLP-1 receptor were 0.145 nM and 2.99 nM, respectively.

B6: Y-Aib-EGT-αMeF(2F)-TSDK((2-[2-(2-Amino-ethoxy)-ethoxy]-acetyl)2-(γ-Glu)-CO-(CH2)12-CO2H)SI-αMeL-LD-Orn-K((2-[2-(2-Amino-ethoxy)-ethoxy]-acetyl)2-(γ-Glu)-CO-(CH2 … (peptide)
peptide: B5 peptide with X10K, K31P
modifications: Aib2, αMeF(2F)6, K10(Z1), αMeL13, Orn16, K17(Z1), Aib20, D-Glu24, αMeY25, C-term NH2; Z1=AEEA2-(γ-Glu)-CO-(CH2)12-CO2H
In the case of B6, the Ki with human GIP receptor was 0.378 nM; with human GLP-1 receptor, 6.48 nM.

B7: Y-Aib-EGT-αMeF(2F)-TSD-4Pal-Aib-I-αMeL-LD-Orn-K((2-[2-(2-Amino-ethoxy)-ethoxy]-acetyl)-(γ-Glu)-CO-(CH2)12-CO2H)AQ-Aib-EFI-(D-Glu)-αMeY-LIEGGPSSGAPPPSK((2-[2-(2- … (peptide)
peptide: YXEGTXTSDXXIXLDXKAQXEFIXXLIEGGPSSGAPPPSK
modifications: Aib2, αMeF(2F)6, 4Pal10, Aib11, αMeL13, Orn16, K17(Z1), Aib20, D-Glu24, αMeY25, K40(Z1), C-term NH2; Z1=AEEA-(γ-Glu)-CO-(CH2)12-CO2H
With B7, the figures for the Ki with human GIP receptor and in the assay with human GLP-1 receptor were 0.091 nM and 2.07 nM, respectively.
